Experimental data published in patent US20170342349A1, “STABILIZED ENZYME COMPOSITIONS” (NOVOZYMES A/S, priority 2014, published 2017).
Several values for one entry are separate records, joined by “and”; a condition that tells them apart may be missing. Equal values may be shown once.

Experiment: Inhibitor binding assay of SEQ ID NO 3 variants, Inhibitor 1, in Model B detergent
Type: biochemical
Conditions: in Model B relative to SEQ ID NO 3 comprising S173P + S175P + F180Y; relative Ki, IF>1.0 = lower Ki
Source text: (§1) Where E is the protease, I is the inhibitor and EI is the protease-inhibitor complex. […] The concentration of enzyme-inhibitor in the detergent solution is then given by:
(§2) where Etot is the total protease concentration ([Etot]=[E]+[EI]), Itot is the total inhibitor concentration ([Itot]=[I]+[EI]), and Ki is the equilibrium binding constant for the reaction. The measured slopes V are given by:
(§3) where V0 is the slope without inhibitor added. To calculate apparent binding constant Ki least square fitting of measured slopes at various inhibitor concentrations to this equation is performed with Ki and V0 as variables.
(§4) Purified protease variants are pre-diluted to approximately 0.2 mg/ml in dilution buffer. The experimental conditions are described in Table 5. 40 μl diluted protease is then mixed with 40 μl inhibitor solution Inhibitor 1: (Cbz-Gly-Ala-NHCH(CH2C6H4pOH)C(OH)(SO3Na)—H, wherein Cbz is benzyloxycarbonyl) or 40 μl Inhibitor 2: (4-FPBA) solution in the well of a 96 well microtiter plate (Nunc F 96-MTP). […] After 10 min mixing of protease and inhibitor at room temperature, 30 μl of the mixture is transferred to a microtiter plate (Nunc U96 PP 0.5 ml) with 270 μl Model B detergent (described in Table 1) in the wells resulting in inhibitor 1 concentrations of 0-30 μM and inhibitor 2 concentrations of 0-6000 μM. Protease, inhibitor and detergent is mixed for 1 hour using magnetic bars for 1 hour at room temperature to reach equilibrium. Then 20 μl is transferred to a microtiter plate (Nunc F 96-MTP). 100 μl substrate solution is added and after 5 sec mixing absorbance at 405 nm is measured every 20 sec for 5 min on a SpectraMax Plus reader. Slope from linear regression of initial increase in absorbance at 405 nm is used for calculation of apparent binding constants. Ki values were calculated according to the “Calculation of Ki” method described in “Materials and Methods”
(§5) Having the Ki for each variant, it is possible to calculate the effect of a single mutation, if data are available for at least two variants that differ only by that mutation. In this case, the relative Ki for the mutation (Improvement Factor, or IF) is calculated:
(§6) A lower Ki is desirable, as a satisfactory inhibition can be obtained at a lower inhibitor concentration, so beneficial mutations have an IF>1.0

Molecule	inhibitor 1 binding constant improvement factors (IF)
S111I + S173P + S175P + F180Y: protease variant of SEQ ID NO 3 (protein, listed as Bacillus sp.) AVPSTQTPWGIKSIYNDQSITKTTGGSGIKVAVLDTGVYTSHLDLAGSAEQCKDFTQSNPLVDGSCTDRQGHGTHVAGTVLAHGGSNGQGVYGVAPQAKLWAYKVLGDNGIGYSDDIAAAIRHVADEASRTGSKVVINMSLGSSAKDSLIASAVDYAYGKGVLIVAAAGNSGPGPNTIGYPGGLVNAVAVAALENVQQNGTYRVADFSSRGNPATAGDYIIQERDIEVSAPGASVESTWYTGGYNTISGTSMATPHVAGLAAKIWSANTSLSHSQLRTELQNRAKVYDIKGGIGAGTGDDYASGFGYPRVK	1.12
S173P + S175P + F180Y + L184W: protease variant of SEQ ID NO 3 (protein, listed as Bacillus sp.) AVPSTQTPWGIKSIYNDQSITKTTGGSGIKVAVLDTGVYTSHLDLAGSAEQCKDFTQSNPLVDGSCTDRQGHGTHVAGTVLAHGGSNGQGVYGVAPQAKLWAYKVLGDNGSGYSDDIAAAIRHVADEASRTGSKVVINMSLGSSAKDSLIASAVDYAYGKGVLIVAAAGNSGPGPNTIGYPGGWVNAVAVAALENVQQNGTYRVADFSSRGNPATAGDYIIQERDIEVSAPGASVESTWYTGGYNTISGTSMATPHVAGLAAKIWSANTSLSHSQLRTELQNRAKVYDIKGGIGAGTGDDYASGFGYPRVK	2.23
S173P + S175P + F180Y + L184H: protease variant of SEQ ID NO 3 (protein, listed as Bacillus sp.) AVPSTQTPWGIKSIYNDQSITKTTGGSGIKVAVLDTGVYTSHLDLAGSAEQCKDFTQSNPLVDGSCTDRQGHGTHVAGTVLAHGGSNGQGVYGVAPQAKLWAYKVLGDNGSGYSDDIAAAIRHVADEASRTGSKVVINMSLGSSAKDSLIASAVDYAYGKGVLIVAAAGNSGPGPNTIGYPGGHVNAVAVAALENVQQNGTYRVADFSSRGNPATAGDYIIQERDIEVSAPGASVESTWYTGGYNTISGTSMATPHVAGLAAKIWSANTSLSHSQLRTELQNRAKVYDIKGGIGAGTGDDYASGFGYPRVK	2.50
S173P + S175P + F180Y + L184Y: protease variant of SEQ ID NO 3 (protein, listed as Bacillus sp.) AVPSTQTPWGIKSIYNDQSITKTTGGSGIKVAVLDTGVYTSHLDLAGSAEQCKDFTQSNPLVDGSCTDRQGHGTHVAGTVLAHGGSNGQGVYGVAPQAKLWAYKVLGDNGSGYSDDIAAAIRHVADEASRTGSKVVINMSLGSSAKDSLIASAVDYAYGKGVLIVAAAGNSGPGPNTIGYPGGYVNAVAVAALENVQQNGTYRVADFSSRGNPATAGDYIIQERDIEVSAPGASVESTWYTGGYNTISGTSMATPHVAGLAAKIWSANTSLSHSQLRTELQNRAKVYDIKGGIGAGTGDDYASGFGYPRVK	3.91
S173P + S175P + I178F + F180Y: protease variant of SEQ ID NO 3 (protein, listed as Bacillus sp.) AVPSTQTPWGIKSIYNDQSITKTTGGSGIKVAVLDTGVYTSHLDLAGSAEQCKDFTQSNPLVDGSCTDRQGHGTHVAGTVLAHGGSNGQGVYGVAPQAKLWAYKVLGDNGSGYSDDIAAAIRHVADEASRTGSKVVINMSLGSSAKDSLIASAVDYAYGKGVLIVAAAGNSGPGPNTFGYPGGLVNAVAVAALENVQQNGTYRVADFSSRGNPATAGDYIIQERDIEVSAPGASVESTWYTGGYNTISGTSMATPHVAGLAAKIWSANTSLSHSQLRTELQNRAKVYDIKGGIGAGTGDDYASGFGYPRVK	2.34 and 1.83
K146R + S173P + S175P + F180Y: protease variant of SEQ ID NO 3 (protein, listed as Bacillus sp.) AVPSTQTPWGIKSIYNDQSITKTTGGSGIKVAVLDTGVYTSHLDLAGSAEQCKDFTQSNPLVDGSCTDRQGHGTHVAGTVLAHGGSNGQGVYGVAPQAKLWAYKVLGDNGSGYSDDIAAAIRHVADEASRTGSKVVINMSLGSSARDSLIASAVDYAYGKGVLIVAAAGNSGPGPNTIGYPGGLVNAVAVAALENVQQNGTYRVADFSSRGNPATAGDYIIQERDIEVSAPGASVESTWYTGGYNTISGTSMATPHVAGLAAKIWSANTSLSHSQLRTELQNRAKVYDIKGGIGAGTGDDYASGFGYPRVK	1.31

More lines, now with the values ahead:

inhibitor 1 binding constant improvement factors (IF)	Molecule
2.22	S173P + S175P + I178P + F180Y: protease variant of SEQ ID NO 3 (protein, listed as Bacillus sp.) AVPSTQTPWGIKSIYNDQSITKTTGGSGIKVAVLDTGVYTSHLDLAGSAEQCKDFTQSNPLVDGSCTDRQGHGTHVAGTVLAHGGSNGQGVYGVAPQAKLWAYKVLGDNGSGYSDDIAAAIRHVADEASRTGSKVVINMSLGSSAKDSLIASAVDYAYGKGVLIVAAAGNSGPGPNTPGYPGGLVNAVAVAALENVQQNGTYRVADFSSRGNPATAGDYIIQERDIEVSAPGASVESTWYTGGYNTISGTSMATPHVAGLAAKIWSANTSLSHSQLRTELQNRAKVYDIKGGIGAGTGDDYASGFGYPRVK
1.69	S173P + S175P + F180Y + G182S: protease variant of SEQ ID NO 3 (protein, listed as Bacillus sp.) AVPSTQTPWGIKSIYNDQSITKTTGGSGIKVAVLDTGVYTSHLDLAGSAEQCKDFTQSNPLVDGSCTDRQGHGTHVAGTVLAHGGSNGQGVYGVAPQAKLWAYKVLGDNGSGYSDDIAAAIRHVADEASRTGSKVVINMSLGSSAKDSLIASAVDYAYGKGVLIVAAAGNSGPGPNTIGYPSGLVNAVAVAALENVQQNGTYRVADFSSRGNPATAGDYIIQERDIEVSAPGASVESTWYTGGYNTISGTSMATPHVAGLAAKIWSANTSLSHSQLRTELQNRAKVYDIKGGIGAGTGDDYASGFGYPRVK
3.28	S173P + S175P + F180Y + L184D: protease variant of SEQ ID NO 3 (protein, listed as Bacillus sp.) AVPSTQTPWGIKSIYNDQSITKTTGGSGIKVAVLDTGVYTSHLDLAGSAEQCKDFTQSNPLVDGSCTDRQGHGTHVAGTVLAHGGSNGQGVYGVAPQAKLWAYKVLGDNGSGYSDDIAAAIRHVADEASRTGSKVVINMSLGSSAKDSLIASAVDYAYGKGVLIVAAAGNSGPGPNTIGYPGGDVNAVAVAALENVQQNGTYRVADFSSRGNPATAGDYIIQERDIEVSAPGASVESTWYTGGYNTISGTSMATPHVAGLAAKIWSANTSLSHSQLRTELQNRAKVYDIKGGIGAGTGDDYASGFGYPRVK

Experiment: Inhibitor binding assay of SEQ ID NO 3 variants, Inhibitor 2, in Model B detergent
Type: biochemical
Conditions: in Model B relative to SEQ ID NO 3; relative Ki, IF>1.0 = lower Ki
Source text: as §1, §2, §3, §4, §5, §6

inhibitor 2 binding constant improvement factors (IF)	Molecule
1.03	A145E: protease variant of SEQ ID NO 3 (protein, listed as Bacillus sp.) AVPSTQTPWGIKSIYNDQSITKTTGGSGIKVAVLDTGVYTSHLDLAGSAEQCKDFTQSNPLVDGSCTDRQGHGTHVAGTVLAHGGSNGQGVYGVAPQAKLWAYKVLGDNGSGYSDDIAAAIRHVADEASRTGSKVVINMSLGSSEKDSLIASAVDYAYGKGVLIVAAAGNSGSGSNTIGFPGGLVNAVAVAALENVQQNGTYRVADFSSRGNPATAGDYIIQERDIEVSAPGASVESTWYTGGYNTISGTSMATPHVAGLAAKIWSANTSLSHSQLRTELQNRAKVYDIKGGIGAGTGDDYASGFGYPRVK
2.03	S144R: protease variant of SEQ ID NO 3 (protein, listed as Bacillus sp.) AVPSTQTPWGIKSIYNDQSITKTTGGSGIKVAVLDTGVYTSHLDLAGSAEQCKDFTQSNPLVDGSCTDRQGHGTHVAGTVLAHGGSNGQGVYGVAPQAKLWAYKVLGDNGSGYSDDIAAAIRHVADEASRTGSKVVINMSLGSRAKDSLIASAVDYAYGKGVLIVAAAGNSGSGSNTIGFPGGLVNAVAVAALENVQQNGTYRVADFSSRGNPATAGDYIIQERDIEVSAPGASVESTWYTGGYNTISGTSMATPHVAGLAAKIWSANTSLSHSQLRTELQNRAKVYDIKGGIGAGTGDDYASGFGYPRVK
1.23	S111E: protease variant of SEQ ID NO 3 (protein, listed as Bacillus sp.) AVPSTQTPWGIKSIYNDQSITKTTGGSGIKVAVLDTGVYTSHLDLAGSAEQCKDFTQSNPLVDGSCTDRQGHGTHVAGTVLAHGGSNGQGVYGVAPQAKLWAYKVLGDNGEGYSDDIAAAIRHVADEASRTGSKVVINMSLGSSAKDSLIASAVDYAYGKGVLIVAAAGNSGSGSNTIGFPGGLVNAVAVAALENVQQNGTYRVADFSSRGNPATAGDYIIQERDIEVSAPGASVESTWYTGGYNTISGTSMATPHVAGLAAKIWSANTSLSHSQLRTELQNRAKVYDIKGGIGAGTGDDYASGFGYPRVK
